The source of these data is publication PMC3337949.

Experiment [1] concerns the target substrate-trapping Csw, Csw^C583S (Csw^CS) (Drosophila). In words: co-IP.
In experiment [2] the target is wild type Corkscrew (Csw^WT) (Drosophila). In words: co-IP.

Regarding HA-tagged Draper-II (receptor), the fold change of the co-immunoprecipitated amount against Csw^WT in experiment [1] was found to be 1.7 fold. The substance further yielded a fold change of the co-immunoprecipitated amount against Draper-I in experiment [2] of 24 fold.
